Target: DENV2 sE WT (soluble envelope protein E of dengue virus 2, wild type) (dengue virus 2 (strain 16681))
Test: BLI

B1: EDE1 C10 quaternary epitope antibody (antibody, V domains shown)
VH: EVQLVESGAEVKKPGASVKVSCKASGYTFTSYAMHWVRQAPGQRLEWMGWINAGNGNTKYSQKFQDRVTITRDTSASTAYMELSSLRSEDTAIYYCARDKVDDYGDYWFPTLWYFDYWGQGTLVTVSS
VL: QSALTQPASVSGSPGQSITISCTGTSSDVGGFNYVSWFQQHPGKAPKLMLYDVTSRPSGVSSRFSGSKSGNTASLTISGLQAEDEADYYCSSHTSRGTWVFGGGTKLTVL
  Kd: > 1000 nM

From PMC8519570 (2021)
